B1: RHS15-P2 (dsDNA)
DNA 1: GACAAATGAATTCGGAGACAAATGAATTCGGAGACAAATGAATTCGGAGACAAATGAATTCGGA
DNA 2: TCCGAATTCATTTGTCTCCGAATTCATTTGTCTCCGAATTCATTTGTCTCCGAATTCATTTGTC
B2: EXT14-P2 (dsDNA)
DNA 1: TGCATATGAATTAACATGCATATGAATTAACATGCATATGAATTAACATGCATATGAATTAACA
DNA 2: TGTTAATTCATATGCATGTTAATTCATATGCATGTTAATTCATATGCATGTTAATTCATATGCA
B3: PRP1-P4 (dsDNA)
DNA 1: AACAGATGAACGACATAACAGATGAACGACATAACAGATGAACGACATAACAGATGAACGACAT
DNA 2: ATGTCGTTCATCTGTTATGTCGTTCATCTGTTATGTCGTTCATCTGTTATGTCGTTCATCTGTT
B4: RHS19-P1 (dsDNA)
DNA 1: TCTGCACGAATGTCACTCTGCACGAATGTCACTCTGCACGAATGTCACTCTGCACGAATGTCAC
DNA 2: GTGACATTCGTGCAGAGTGACATTCGTGCAGAGTGACATTCGTGCAGAGTGACATTCGTGCAGA

The data set addresses T1, GST-EIN3(141-352) (Arabidopsis thaliana, UniProt O24606 141-352).
T1 sequence: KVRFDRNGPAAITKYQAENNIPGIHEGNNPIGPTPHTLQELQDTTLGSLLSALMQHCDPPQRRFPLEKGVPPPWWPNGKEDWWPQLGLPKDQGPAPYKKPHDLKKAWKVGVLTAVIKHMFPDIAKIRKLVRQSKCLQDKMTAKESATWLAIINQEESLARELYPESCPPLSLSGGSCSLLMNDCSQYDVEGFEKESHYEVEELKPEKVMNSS
In words: EMSA; competed by 500x unlabelled probe; 25 mM HEPES-KOH pH 7.5, 100 mM KCl, 0.1 mM EDTA, 10% glycerol, 1 mM DTT, 1 ug poly(dI-dC), 0.1 ug protein in 20 uL, room temperature 30 min; 5.5% PAGE in 0.5x TBE. The conditions noted are these: protein: recombinant; tags: GST (pGEX-6p-1); chain copies: 2; label: biotin; blunt. On the technique in general: Mobility shift assays separate free from complexed probe on a gel.
For B1, the binding result is recorded as “binds”.

As for B2, the binding result is “binds”.

In the case of B3, the binding result is listed as “binds”.

Consider B4, for which the binding result is listed as “binds”.

The record behind these values is PMC4948871, “The Molecular Mechanism of Ethylene-Mediated Root Hair Development Induced by Phosphate Starvation”.
